Experimental data: publication PMC8494340, “Enhancers with cooperative Notch binding sites are more resistant to regulation by the Hairless co-repressor” (PLoS Genetics, 2020)
Each block holds one binder with its values, some of them ahead of it.

Biological target: T1, Drosophila Su(H) (aa 98–523) (Drosophila, UniProt P28159 98-523)
T1 construct: Suppressor of Hairless, Su(H), Drosophila, residues 98-523; also called Suppressor of Hairless; CSL transcription factor
Assay: native gel or EMSA; purified proteins mixed with fluorescently labelled 2xCSL17 and 1xSPS15 DNA probes, room temperature 20 minutes; Su(H) 2.5 to 160 nM, 2 μM Hairless or NICD/Mam; the protein complexes are seen bound to the DNA probe; band intensities fitted to a 2-site equilibrium model
Conditions: both partners purified

T1 sequence (P28159 98-523): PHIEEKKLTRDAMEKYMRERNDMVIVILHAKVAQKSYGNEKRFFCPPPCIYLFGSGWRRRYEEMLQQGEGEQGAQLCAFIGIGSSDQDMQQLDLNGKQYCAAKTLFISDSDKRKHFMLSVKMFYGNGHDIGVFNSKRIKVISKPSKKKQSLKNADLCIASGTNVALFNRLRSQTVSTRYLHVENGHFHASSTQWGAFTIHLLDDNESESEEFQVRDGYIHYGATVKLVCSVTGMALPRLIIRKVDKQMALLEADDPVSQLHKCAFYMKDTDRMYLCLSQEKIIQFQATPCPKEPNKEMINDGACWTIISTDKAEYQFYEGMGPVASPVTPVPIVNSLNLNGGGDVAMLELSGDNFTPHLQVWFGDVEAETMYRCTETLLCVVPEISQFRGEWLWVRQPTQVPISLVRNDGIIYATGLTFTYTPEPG

- binding result: binds
B1: Drosophila Mastermind (aa 87–307) (domain or fragment, UniProt P21519 87-307, looked up)
chain: PYNANLGATGGIAGITGGNGAGGPTNPGAVPTAPGDTMPTKRMPVVDRLRRRMENYRRRQTDCVPRYEQAFNTVCEQQNQETTVLQKRFLESKNKRAAKKTDKKLPDPSQQHQQQQHQQQQQHQQHQQHQQAQTMLAGQLQSSVHVQQKFLKRPAEDVDNGPDSFEPPHKLPNNNNNSNSNNNNGNANANNGGNGSNTGNNTNNNGNSTNNNGGSNNNGSE
notes: Mastermind, Drosophila, residues 87-307; also called Mam; MAM

- binding result: binds
B2: Drosophila Notch intracellular domain, NICD (aa 1763–2142) (domain or fragment, UniProt P07207 1763-2142, looked up)
chain: VLSTQRKRAHGVTWFPEGFRAPAAVMSRRRRDPHGQEMRNLNKQVAMQSQGVGQPGAHWSDDESDMPLPKRQRSDPVSGVGLGNNGGYASDHTMVSEYEEADQRVWSQAHLDVVDVRAIMTPPAHQDGGKHDVDARGPCGLTPLMIAAVRGGGLDTGEDIENNEDSTAQVISDLLAQGAELNATMDKTGETSLHLAARFARADAAKRLLDAGADANCQDNTGRTPLHAAVAADAMGVFQILLRNRATNLNARMHDGTTPLILAARLAIEGMVEDLITADADINAADNSGKTALHWAAAVNNTEAVNILLMHHANRDAQDDKDETPLFLAAREGSYEACKALLDNFANREITDHMDRLPRDVASERLHHDIVRLLDEHVPR
notes: Notch, Drosophila, intracellular domain, residues 1763-2142
